The source of these data is patent US20100261778.

In the data set the target is p53 wild-type (UniProt P04637). Kind of data set: cell_activity. The following applies: dual luciferase activation in H1299 (p53 null).
Chain of p53 wild-type (P04637 whole entry): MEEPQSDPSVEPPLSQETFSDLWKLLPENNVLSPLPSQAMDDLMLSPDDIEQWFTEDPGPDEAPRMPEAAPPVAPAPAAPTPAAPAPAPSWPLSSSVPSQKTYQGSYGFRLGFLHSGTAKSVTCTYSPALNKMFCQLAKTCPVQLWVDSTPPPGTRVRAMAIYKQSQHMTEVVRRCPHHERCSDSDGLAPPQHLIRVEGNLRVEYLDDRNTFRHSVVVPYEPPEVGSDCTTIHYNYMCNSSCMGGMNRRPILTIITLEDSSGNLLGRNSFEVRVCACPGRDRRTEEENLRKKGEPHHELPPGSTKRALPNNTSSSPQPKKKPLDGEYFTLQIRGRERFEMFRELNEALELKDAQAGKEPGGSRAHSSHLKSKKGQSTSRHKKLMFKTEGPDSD

As to “killin promoter 140 bp fragment with p53 site (pGL3-Killin)”, the activity is 70 fold.
